{"source": "the DeepSol protein solubility set", "data": [{"assay": "soluble on expression in E. coli; label from the status in PepcDB or PDB records", "values": [{"sequence": "MGSDKIHHHHHHMFLVCGEALFDIFTRADDGGSLNRLGFDAIAGGSPFNVAIGLRRLGVEAAFFAGLSTDYLGRRLRAVLEQETVNAEHLIEFDAPTTLAMVAVGSDGSPTYSFRGDGCADRQLRLEHLPELDERVRGIHVGSFSLVVQPIADTLLALVARESARRLISLDPNVRLNPAPDIQRWRTQIAAFAEHAHLIKVSDEDLHLLYPDSDPQQIAEGWLGKRTQLVIVTRGTQGASVFTRQHGTWSVPAKTVVTADTVGAGDTFQAALLTFLSERQLDTPQGLSTLSRETLDEMLNFAVGAAALTCTKVGPDLPYRHQLG", "soluble on expression in E. coli": "not soluble"}, {"sequence": "MGSDKIHHHHHHMDPRSEVLLRQAELFQGPLLIAGAPADDLLGQLPQAQAWTWHAGDQAMLESRFAGRSHYGVEAPEAAFDSAVLFLPKSRELAAYLLNALASRLAGRELYLVGEKRGGIEGAAKQLQAFGKPRKLDSARHCQLWQVTIDQAPQAKPLESLAERFELALEDGPLQVVSLPGVFSHGRLDRGTALLLKHLDGLPGGHMLDFGCGAGVLGATLKRRYPQSRVTLLDVDAFAVAASRLTLAANGLEGEVISGDGIDAAPTELSLILSNPPFHTGVHTNYQASENLLKKSAVHLRKGGEMRLVANSFLRYQPLIEGALGNCQVRDEADGFRIYQATRG", "soluble on expression in E. coli": "not soluble"}, {"sequence": "MSLDLRKINLNLLLHLDTLLNELSVSKAAEKSFMSQTAMSHILKQLRDIFDDPLFIRKPHGLQPTQKVLDLAPKIKKFLNYSNDIFEEDTFNPGNDNLFLKTASVGTGEYFILPRLCAHLAKNAPKFVLKISSLSEYLSLEYLLMSELDFAIGPGFVETGNNIIRELLFEEEAVCIMHKSHPLANQELTQDMYLQAEHVDIQFSYMGNENILYKALQGYHQRNIKVIVPNIISALEVVYHTNFITTVPRTLAVTFKDRYQIELHPFPFPKKTFLVNFYYHKRLSNHKPLQWVLDVIKKYCCVNHEGHHHHHH", "soluble on expression in E. coli": "soluble"}, {"sequence": "MSSINITNVTVLDNPAPFVNPFQFEISYECLTSLKDDLEWKLIYVGSAEDETYDQVLESVLVGPVNVGNYRFVLQADSPDPLKIREEDIIGVTVLLLTCSYMDQEFIRVGYYVNNDYDDEQLREEPPTKVLIDKVQRNILTDKPRVTKFPINFHPENEQTLGDGPAPTEPFADSVVNGEAPVFLEQPQKLQEIEQFDDSDVNGEAIALLDQPQNLQET", "soluble on expression in E. coli": "soluble"}, {"sequence": "MSQPAKVLLLYAHPESQDSVANRVLLKPAIQHNNVTVHDLYARYPDFFIDTPYEQALLREHDVIVFQHPLYTYSCPALLKEWLDRVLSRGFASGPGGNQLVGKYWRSVITTGEPESAYRYDALNRYPMSDVLRPFELTAAMCRMHWMPPIIVYWARRQSPQTLASHAKAYGEWLANPVSAGGY", "soluble on expression in E. coli": "not soluble"}, {"sequence": "MGSDKIHHHHHHMSIKSDKWIRRMSEEFGMIDPFEPNQIKEADGQRIISYGTSSYGYDIRCANEFKIFTNINSTIVDPKNFDPKNFVTVEDDCCIIPPNSFALARTVEYFRIPRNVLTVCLGKSTYARCGIIVNVTPFEPEWEGYVTLEFSNTTPLPAKIYAGEGVAQVLFFESDEVCETSYKDRNGKYMGQTGVTLPKA", "soluble on expression in E. coli": "not soluble"}, {"sequence": "MFDVDIKFGDVYVRNIEEKDIGELKEILKDKKFYLNDEELKEIFLEYYMSECEFFTKILKKGKFVGVFRGRIEFKSSNMAWISYFYVDERYSSYKDSQDILMNILEYFSESFGVTDFITGVTNSEKDMIELWENNDFKTVRINKEFYSDRGYKEDLVIMKKYSAI", "soluble on expression in E. coli": "not soluble"}, {"sequence": "MGKNDQYYAVARGKQVGIYRTWNECKTQIDGFQNARFKKFATEAEARKFVADNMSVPGSKPVTPAVSTSSATRKRTHEGTKFTEAKKMKTEEEVIDPEFANAPVVYTDGACSSNGTKNAKAGWGVYWGDDSEDNEFGPVYGAPTNNRGELIAVQKAIEKAIEKRLPKVVIKTDSNLLVQSMNIWIHGWKRKGWKTSTGSEVLNQDVLMKIDNLRQKLKVKFLHVRGHAGIDGNEKADELARKGAQMFIKRS", "soluble on expression in E. coli": "not soluble"}, {"sequence": "MAHHHHHHMAGSIRYFIDPRGALSPCAPAESSTPRAGGTKVPRTAEAKSSPNSPPELSSAVPLDGLCRAYEAADGRSGSAFLQVYSVGAHGLLSPEAKAVITGCTMAALRSRLSHLLGLLPHERLNGADSALGMSAVAVLNRYCRATAALPPPSPSAMQPRCGTDTDGGGMRGRGWVVTWALELVLCVAASRIVAGPPLATACPPLCVSDCGDVIMASLHFGLGVRLQRDAVAHHDERTIASSTPLTSAAERCPRYAALSVQLTECTPASSHPLDVRCAVDVTRVIYVNHIRSAQAHAEDGTDAFQRLARCEGGVSDPLSVATARDAWAEALQSYQASAIASQGGVLFVLTHDLSVQSGPAALLPLTVREERSRSHAAEMSHDVAFPPALRDHVLASVRVRSAPVYFNHILLCQAWSSDDVVAEAHARHWAEKLANDGALAPARVAVEWRASLLVSRAKGGAAVTSDAGGSQTLAPTPLQWVLYTARRQLVVAVANRSQVVLTGRRRGLDRTAAEATTKAAQFSPSALRALAEQCVKALPVARGLLGWHCPWPVPSCLQNTDTCTAIPSAAAVEEVLWTLRMLGKLRWRAAQLYEAAGDSAEQHRQLRALRADVQRWSSRRRARTLAADGTTLACEATAWTPTVEDVVCHVDDGDWGALTKELSSMLPPA", "soluble on expression in E. coli": "not soluble"}, {"sequence": "MGSDKIHHHHHHFDLEPSSSVPTDKVYKTADDFNVAVIGCYSKLQGQVSYFTECCEYRSDNLSLSAPTAGTQDRYDIDQFADKASNGILESAWANFNNGVYRCNLVLDKIDAADFDATLKKQYKGEALFVRALTYFNMYRLWGGIPMTDKVVTVAEALKIGRSSEQQVFDFLTGDLNQVINENMLPSSYTGTDTGRATSGAAMALLGKIYLTFHKWTEARNVLSQLIGRYSLMPTPDKVFDVDNKMNDEIIFAVRFNKDVEGEGHGYWFSIINLTDDTNQTKALKECYKDGDKRKDLITYVKVEDKVCVMNKFKDLKSATYNTVGNDQIILRYADVLLMYAEALNEISYSNSQTSDAMVALNAVHTRAGLSPVQITELADQDSFRKAIMLERQQEFPYEGHRWFDLVRMGGAKEAMKAEGHTIQDFQFLYPIPKTELERINNTELLWQNPGY", "soluble on expression in E. coli": "not soluble"}, {"sequence": "RQLALEAKGETPSAVTRLSVVAKSEPQDEQSRSQSARRIILSRLKAGEVDLLEEELGHLTTLTDVVKGADSLSAILPGDIAEDDITAVLCFVIEADQITFETVEVSPKISTPPVLKLAAEQAPTGRVEREKTTR", "soluble on expression in E. coli": "soluble"}, {"sequence": "MVHFIFIALRSMRFMRRLVRNLQYLLLPITSSLLFI", "soluble on expression in E. coli": "soluble"}, {"sequence": "KLKDIAKKILVGGEKPSDFQKEKDQVYKYPILSNSRKADDFLGYSKTFRIAEKSITVSARGTIGAVFYRDFSYLPAVSLICFIPKPEFNINFLFHALKATKFHKQGSGTGQLTMAQFKEYQVYIPSLKKQQEIAATLDP", "soluble on expression in E. coli": "soluble"}, {"sequence": "MSVTFPSSGCPSFFNIFYEEGIVMKLTIYYDGQFWVGVVEVVDNGKLRAFRHLFGKEPRDSEVLEFVHNQLLNMMAQAEQEGVRLQGRRQKKINPKRLQRQVSKELKNAGVTSKAQEAIKLELEARKQKKKQIMKEQREHVKEQRYMLKKQKAKKKHRGKLEHHHHHH", "soluble on expression in E. coli": "soluble"}, {"sequence": "MGHHHHHHSHMQTFQLDTERLCQAAKLYQHTKSDFGLNGMIQLSGSCNNMSLSVLGSIGGCAILRLELLEAARLHSSKDSSKSAIYSFRNASSLGREFTHGGELFGPKMESASLSFYGHHGVKYVEAQFVHDSSSKTVHTAAMQPITIPPSCAFDDREANGIVTLSTKTAAALVKWLKQHTKTCQSPVKVSISEILGVMVLSVGDASMTVDVTPVNVSSGKKTRGGNKASDSGTISADATVHVNGHCLIRSLIVCKVPGCTTPRVKFHACGILEVDGAPVKQGELTQVKLSVALLNVDSSTGRVLKEPVVTGASKDRGASKSEDADGSPPVPDHPKESLTSDSDSSVPGPRSTDLSSLTHTPSDRFSSDLRSGCGGQQFLKRPPPKKDREPTTKRPKLHFNHFP", "soluble on expression in E. coli": "soluble"}, {"sequence": "MGSDKIHHHHHHMKIQQPSVLIPDPCNNPLAYYAIRCLKQANSEFNINVIVSSGQTLDDNEWLYFYKYSAYIDNLVVSANSMNSLEYLDEVIRIIENQGINLIFPASEEGFKFVSKYRYKLSKFCRIVALPSEENLDAAFDKWKLHLLLQKHNIPTPETVLLKEIENISQFNYPVILKPVDGSGGKNIQKFDSLEEENFQAICNYPNDVYIVQKYVPGHDIGCSVLCQDGQVLAYTIQQQLGLTEGFTPKIDKLKFVHDSAVIDIVTKTMNVLKWSGIANLDLRYNSQTGQINVIEINPRFWQSLMGSLSVGVNFPYILYLLSNNISFERISYKEQYYAKFHRFIQDAFNGSLEYSLSDTNVKYFLSDPSGILHFLFYKLMKQKLFQNMKSIFSLQSQKIQNVK", "soluble on expression in E. coli": "not soluble"}, {"sequence": "MAHHHHHHMIKRYLKIYPSIYFTKHVYTAPEIDGSKDLLKKDYVFNQYVNKKEIFLNNKLKKGNCENEIKRIYYFKLWNAMVEHNFTLFENIIQQYLNEGYKYDEVIYSIMTHAYILNHKKKNENAYLVIEEMKRAFMHPIIIKINERMINCFLELELIFCEPSKSLWINVCRFIWESSIKLNRERRRKLKEKLNLLEPNQVLKLTKEDVKKLVKKEYEETLLSMMDTLSLDGEDPYDHILIDRKENYMKIENQKDGNFFPSNGNELTCLNNNHIYNDHINYLKGNIENDTSENVNSFMFSILNEGKNKTTEQEINYQDDYNLNNNDYMTKITNINSDNNIMMNMENEHMYETDEKDEHYESFDDAEDFDIQLLKKYYNLK", "soluble on expression in E. coli": "not soluble"}, {"sequence": "MGSDKIHHHHHHMHTQVNELFSELWQNYVSVTPSAAKIHALLGSSQQDDVQNDHIALRTFNIEKINLDKLAAHFLALGYKENGEYHFEAKKLYAKHYEHPDPTQPKVFISELLLEKCSPELQAIVHKLVDQIDVAAVTADNFLYSGRHWSIDQATYNTLVKESEYAAWVSVWGFRANHFTVSVNALKNFETLVSVNDTLKAAGFALNTSGGEIKGSQEVMLKQSSTLADEALVEFTDGSKMVPSCFYEFARRFPMADGTLYPGFVAASADKIFESTNAR", "soluble on expression in E. coli": "not soluble"}, {"sequence": "MGSDKIHHHHHHMLSALWVSKTGLSAQDMNLTTISNNLANVSTTGFKRDRAEFQDLLYQIRRQPGGQSTQDSELPSGLQLGTGVRVVGTQKIFTPGSLQTTEQPLDMAVNGRGFFQVLLPDGTVSYTRDGSFHLNSDGQIVTSNGFALEPAIVVPNETQTFTVGQDGTVSVTTTGNAQPQVIGNIQTADFINPAGLQAIGNNLFLETGSSGAPQVGTPGLNGLGTVAQNTLENSNVNVVEELVNMITTQRAYEMNSKVISTADQMLSFVTQNL", "soluble on expression in E. coli": "not soluble"}, {"sequence": "MTIAQEPTALNFECETGNYHTFCPISCVAWLYQKIEDSFFLVIGTKTCGYFLQNAMGVMIFAEPRYAMAELEEGDISAQLNDYAELKRLCEQIKRDRNPSVIVWIGTCTTEIIKMDLEGLAPKLEGEIGIPIVVARANGLDYAFTQGEDTVLAAMAHRCPDKAPVAELEHHHHHH", "soluble on expression in E. coli": "not soluble"}, {"sequence": "GPGSMVKKMGRDEARAGVERRPPPMLKAERQAAFRRKVRNELLLSGRERKDAERQRMEEFRRLCKAEGIQSKRLQEYDAMREEAANKLGEKLNHIEYDQSLTNAEKRKRRYNLKRNYAGQTVMDLVQKQEKHHNALTKVEKIRKKRQEEIEAARVAKRERDEMKVKRIKERMAQNALYAQRTRKGQPVMSGRVEALLNKIQRNQQQ", "soluble on expression in E. coli": "soluble"}, {"sequence": "MAHHHHHHMPYQHIKVPEGGDKITVNKDFSLNVSDQPIIPYIEGDGTGFDITPVMIKVVDAAVEKAYGGKKKIHWMEIYAGEKATKVYGPDVWLPEETLQVLKEYVVSIKGPLTTPVGGGIRSLNVALRQELDLYVCLRPIQYFKGVPSPVREPEKTNMVIFRENSEDIYAGIEWAAESEQAKKVIKFLQEEMGVKKIRFPQTSGIGIKPVSKEGTERLVRKAIQYAIDNDRKSVTLVHKGNIMKFTEGAFRDAGYALAQKEFGAELIDGGPWMKFKNPKTGNEIVVKDSIADAFLQQILLRPAEYDVIATLNLNGDYISDALAAQVGGIGIAPGANLSDSVAMFEATHGTAPKYAGKDYVNPGSEILSAEMMLRHLGWTEAADVIISAMEKSIKQKRVTYDFARLMEGATQVSCSGFGQVLIENME", "soluble on expression in E. coli": "soluble"}]}]}
